From publication PMC5253704
pKd: −log10 of the molar value.

How the values were obtained:
Test in all cases: ELISA; one protein (25 nM) or two proteins together (12.5 nM each) coated on wells 16 h at 4 °C in buffer A (20 mM Tris-HCl, 150 mM NaCl, 1 mM ZnCl2, 1 mM CaCl2, 1 mM MgCl2, pH 7.4); soluble protein at 50 to 0.78 nM; detected with antibody and HRP secondary; calculated KD
[1] = biological target: recombinant murine α3(V)-NTD (N-terminal non-triple helical domain of the α3(V) collagen chain) (murine)
recombinant FGF2 = recombinant FGF2 (UniProt P09038)
[2] = biological target: recombinant glypican-1 (R&D Systems) (UniProt P35052)
[3] = biological target: GPC1+FGF2 combined (co-adsorbed on the well) (UniProt P35052)

Sequence of recombinant FGF2 (P09038 143-288): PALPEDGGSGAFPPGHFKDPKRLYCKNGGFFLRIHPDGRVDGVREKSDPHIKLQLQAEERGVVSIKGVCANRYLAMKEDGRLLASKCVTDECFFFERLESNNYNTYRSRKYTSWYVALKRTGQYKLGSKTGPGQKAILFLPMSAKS

Row | pKd [1] | pKd (recombinant FGF2) | pKd [2] | pKd [3] | Substance
1 | 7.44 |  |  |  | recombinant FGF2 (from UniProt P09038 143-288) (ligand)
2 | 7.47 |  |  |  | recombinant glypican-1 (R&D Systems) (from UniProt P35052 24-530) (natural protein)
3 |  | 7.46 | 7.48 | 7.80 | recombinant murine α3(V)-NTD (N-terminal non-triple helical domain of the α3(V) collagen chain) (domain or fragment)
